Source: paper PMC6013222, “SNPs in inflammatory genes CCL11, CCL4 and MEFV in a fibromyalgia family study” (PLoS ONE, 2018)
Residue numbers refer to the chain shown, from its start. Names and notes keep the numbering of the source.

B1: Recombinant human CCL4 (MIP-1β), wild type, P13236 24-92 (ligand)
chain: APMGSDPPTACCFSYTARKLPRNFVVDYYETSSLCSQPAVVFQTKRSKQVCADPSESWVQEYVYDLELN
B2: Recombinant human CCL4 variant (S80T) (ligand, UniProt P13236 24-92, looked up)
chain: B1 chain with S57T
notes: C-C motif chemokine 4 (CCL4, MIP-1β), human, natural variant Ser80Thr from SNP rs1719152, recombinant; On SEC two broad peaks: a high molecular weight aggregate (>300 kDa) and a 16 kDa dimer; also called varCCL4; variant CCL4; source: bought: Kingfisher Biotech, Inc

What was measured:
[1] = biological target: T1, Recombinant human CCL4 (MIP-1β), wild type (human), P13236; test: SEC; Superdex 200 10/30 column, 0.5 mL/min in PBS, UV detection at 214 and 280 nm; settings: remark: other sources report otherwise
T1 chain: B1 chain

[2] = biological target: the molecule itself; test: as above

Binder | stoichiometry N [1] | stoichiometry N [2]
B1 | 2 | 
B2 |  | 2
